Measurements as given in patent US20260242485A1 (LEPU BIOPHARMA, published 2026).

Key:
[1] = target: T1, mouse CCR8 expressed on CHO-K1 cells (mouse, UniProt P56484 1-353); experiment: flow cytometry, CHO-K1 mCCR8 cells (CHO-K1 NC parental cells as control), PE anti-human IgG Fc, geometric mean
T1 construct: whole, on cells; also called mCCR8; murine CCR8
T1 sequence (looked up): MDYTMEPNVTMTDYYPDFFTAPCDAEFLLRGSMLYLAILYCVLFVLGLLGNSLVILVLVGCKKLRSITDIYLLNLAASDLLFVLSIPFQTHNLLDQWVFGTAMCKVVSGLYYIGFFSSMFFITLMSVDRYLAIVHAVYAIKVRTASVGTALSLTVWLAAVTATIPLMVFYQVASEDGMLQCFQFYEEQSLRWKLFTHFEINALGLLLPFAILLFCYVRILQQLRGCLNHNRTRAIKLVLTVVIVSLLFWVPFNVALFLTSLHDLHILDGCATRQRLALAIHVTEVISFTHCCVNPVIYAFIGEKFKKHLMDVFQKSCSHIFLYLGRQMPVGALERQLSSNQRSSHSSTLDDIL
Protocol: (§1) Briefly, HEK293 hCCR8 cell line, CHO-K1 mCCR8 cell line and the parental cell lines were first incubated with serially diluted 194A1G9 at 4° C. for 30 mins. After washing by FACS buffer, PE Goat anti-Human IgG Fc Secondary Antibody (eBioscience™, Invitrogen) was added to each well and incubated at 4° C. for 30 mins. Samples were washed twice with FACS staining buffer. The mean florescence intensity (MFI) of PE was evaluated by MACSQuant Analyzer 16.

[2] = target: T2, human CCR8 expressed on cells (human, UniProt P51685 1-355); experiment: flow cytometry, HEK293 hCCR8 cells (HEK293 NC parental cells as control), PE anti-human IgG Fc, geometric mean
T2 construct: whole, on cells; also called hCCR8; HEK293 hCCR8 cell line
Protocol: as §1

T2 sequence (P51685 whole entry): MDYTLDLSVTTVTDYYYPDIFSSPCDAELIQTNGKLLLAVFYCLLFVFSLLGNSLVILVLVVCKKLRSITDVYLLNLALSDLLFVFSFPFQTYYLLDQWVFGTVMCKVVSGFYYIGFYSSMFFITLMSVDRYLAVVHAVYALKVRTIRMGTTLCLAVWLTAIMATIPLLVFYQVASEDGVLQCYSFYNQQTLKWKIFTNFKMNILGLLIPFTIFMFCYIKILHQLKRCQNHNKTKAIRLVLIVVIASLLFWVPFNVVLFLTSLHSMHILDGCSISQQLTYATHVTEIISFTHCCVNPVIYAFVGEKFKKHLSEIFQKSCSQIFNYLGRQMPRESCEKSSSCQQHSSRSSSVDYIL

B1: 194A1G9 (antibody, V domains shown)
VH: QVQLQQSGTELVRPGASVTLSCKASGYTFTDHEMYWVKQTPVHGLEWIGAVDPETGSTAYNQKFKVKAILTADKSSSTAYMELRSLTSEDSAVYYCTSRLRRAMDNWGHGTSVTVSS
VL: DVVLTQTPLSLPVSPGDQASISCRSSQTLLHSSGNTYLHWFLQKPGQSPKLLIYKVSNRFSGVPDRFSGSGSGTDFTLKISRVEAEDLGVYFCSQNTHVPWTFGGGTKLEIK
notes: Detected with anti-human IgG Fc, so with a human Fc; also called surrogate anti-CCR8 antibody 194A1G9; in house anti-mCCR8 clone 194A1G9
EC50 (read off the curve) [1]: ~5 nM | EC50 (read off the curve) [2]: ~0.1 nM
